According to patent publication US20240018247A1 (MUSC FOUNDATION FOR RESEARCH DEVELOPMENT, published 2024):

Columns and labels:
human P-selectin = biological target: T1, human P-selectin (human, UniProt P16109 42-771, limits assumed); test: ELISA binding assay on human P-selectin, OD 450
T1 construct: also called human P-selectin antigen
T1 sequence (looked up): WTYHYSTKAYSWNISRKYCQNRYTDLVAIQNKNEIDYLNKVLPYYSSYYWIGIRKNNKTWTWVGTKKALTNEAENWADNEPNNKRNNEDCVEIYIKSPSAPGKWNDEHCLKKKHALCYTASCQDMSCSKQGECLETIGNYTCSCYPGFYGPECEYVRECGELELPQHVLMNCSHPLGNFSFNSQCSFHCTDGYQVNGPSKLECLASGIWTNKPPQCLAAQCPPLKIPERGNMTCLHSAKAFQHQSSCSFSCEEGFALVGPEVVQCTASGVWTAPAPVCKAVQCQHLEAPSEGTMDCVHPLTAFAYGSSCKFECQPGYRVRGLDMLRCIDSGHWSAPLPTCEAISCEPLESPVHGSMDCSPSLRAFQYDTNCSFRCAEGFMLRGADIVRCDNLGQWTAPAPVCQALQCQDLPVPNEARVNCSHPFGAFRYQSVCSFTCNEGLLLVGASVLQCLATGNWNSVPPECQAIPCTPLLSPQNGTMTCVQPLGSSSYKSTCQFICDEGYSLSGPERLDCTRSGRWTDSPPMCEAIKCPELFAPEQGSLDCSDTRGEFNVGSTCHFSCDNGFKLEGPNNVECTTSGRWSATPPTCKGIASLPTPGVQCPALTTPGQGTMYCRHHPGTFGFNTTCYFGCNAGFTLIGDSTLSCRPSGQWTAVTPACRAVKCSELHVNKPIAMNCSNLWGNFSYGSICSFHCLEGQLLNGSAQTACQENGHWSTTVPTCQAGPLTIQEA
Experimental: To evaluate the ability of B.PselscFv-Crry and NB.PselscFv-Crry to inhibit complement activation, a zymosan A bead assay was performed. Briefly, flow cytometric analysis of C3 deposition on zymosan A particles (SigmaAldrich) was performed and the extent of complement inhibition was normalized by the subtraction of post-IRI complement deposition levels from their baseline levels. Both B.PSelscFv-Crry and NB.PSelscFv-Crry constructs inhibit complement activation in a dose-dependent manner (FIG. 21A). Further, to evaluate the binding of B.PselscFv-Crry and NB.PselscFv-Crry to human P-selectin, an ELISA was performed. Briefly, non-blocking and blocking fusion proteins (NB.PselscFv-Crry and B.PselscFv-Crry, respectively) were plated at varying doses in addition to varying doses of C2-Crry as a negative control.

[1] = biological target: T2, P-Selectin-His tag (mouse) (mouse, UniProt Q01102 42-709, limits assumed); test: SPRi (PlexArray HT), mouse P-Selectin-His printed on chip, fusion protein as analyte, 25 C
T2 construct: also called mouse P-selectin; mouse antigen P-Selectin; not shown: His tag
T2 sequence (looked up): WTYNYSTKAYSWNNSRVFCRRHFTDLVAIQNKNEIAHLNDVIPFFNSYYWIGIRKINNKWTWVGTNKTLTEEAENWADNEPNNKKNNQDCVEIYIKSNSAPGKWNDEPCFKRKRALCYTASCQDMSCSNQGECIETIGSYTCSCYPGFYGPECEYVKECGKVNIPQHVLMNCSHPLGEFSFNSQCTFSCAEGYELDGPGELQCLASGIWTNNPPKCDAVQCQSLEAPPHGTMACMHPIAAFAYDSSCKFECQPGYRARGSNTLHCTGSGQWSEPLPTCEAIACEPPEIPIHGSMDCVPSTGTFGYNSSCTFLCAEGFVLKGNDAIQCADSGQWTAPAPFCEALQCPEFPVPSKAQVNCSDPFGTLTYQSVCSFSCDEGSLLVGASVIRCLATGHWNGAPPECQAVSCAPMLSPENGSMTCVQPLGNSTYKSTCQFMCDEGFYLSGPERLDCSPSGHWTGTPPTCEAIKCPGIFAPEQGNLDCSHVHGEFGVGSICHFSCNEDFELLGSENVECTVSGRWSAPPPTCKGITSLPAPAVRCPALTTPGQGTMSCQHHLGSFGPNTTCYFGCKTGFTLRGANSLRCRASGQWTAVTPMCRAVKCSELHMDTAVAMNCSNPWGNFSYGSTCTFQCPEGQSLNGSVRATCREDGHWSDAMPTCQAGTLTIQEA
Experimental: FIG. 20A through FIG. 20C depict a representative experimental evaluation of the binding affinity of mouse antigen P-Selectin to B.PselscFv-Crry and NB.PselscFv-Crry. SPR binding assays were performed to measure binding affinity KD and kinetic parameters ka, kd of B.PselscFv-Crry and NB.PselscFv-Crry. The ligand is P-Selectin-His tag (mouse) which was printed onto the chip. The analytes are B.PselscFv-Crry and NB.PselscFv-Crry. After data collection with SPR and kinetics fitting and analysis, the KD, ka, and kd were calculated. FIG. 20A depicts exemplary kinetics fitting curves of P-Selectin to B.PselscFv-Crry. FIG. 20B depicts exemplary kinetics fitting curves of P-Selectin to NB.PselscFv-Crry.
To measure binding affinity, surface plasmon resonance was used with mouse P-selectin as the immobilized ligand and B.PselscFv-Crry (FIG. 20A) and NB.PselscFv-Crry (FIG. 20B) as the analytes. Various concentrations of P-Selectin dissolved in water were manually printed onto the bare gold-coated (thickness 47 nm) PlexArray Nanocapture Sensor Chip (Plexera Bioscience, Seattle, WA, US) at 40% humidity. Each concentration was printed in replicate, and each spot contained 0.2 μL of sample solution. The chip was incubated in 80% humidity at 4° C. for overnight, and rinsed with 10×PBST for 10 min, 1×PBST for 10 min, and deionized water twice for 10 min. The chip was then blocked with 5% (w/v) non-fat milk in water overnight, and washed with 10×PBST for 10 min, 1×PBST for 10 min, and deionized water twice for 10 min before being dried under a stream of nitrogen prior to use. SPRi measurements were performed with PlexAray HT (Plexera Bioscience, Seattle, WA, US). Collimated light (660 nm) passes through the coupling prism, reflects off the SPR-active gold surface, and is received by the CCD camera. Buffers and samples were injected by a non-pulsatile piston pump into the 30 μL flowcell that was mounted on the coupling prim.

B1: NB.PSelscFv-Crry (anti-pselectin 2.3scFv-Crry, non-blocking) (scFv)
chain: QIQLVLSGPELKKPGESVKISCKASGYTFTTYGMSWVKQAPGKGLKWMGWINTSSGVPTYADDFKGRFAFSLETSASTAYLQINNLKNEDTATYFCARGGGYYGAYYFYYWGQGTTLTVSSGGGGSGGGGSGGGGSDIQMTQSPASLSASVGETVTITCRTSDNINSYLAWYLQRQGKSPQLLVYNAKTLTEGVPSRFSGSGSGTQFSLKINSLQPEDFGSYYCQHHYGPPPTFGGGTKLEIKGGGGSGGGGSCPAPSQLPSAKPINLTDESMFPIGTYLLYECLPGYIKRQFSITCKQDSTWTSAEDKCIRKQCKTPSDPENGLVHVHTGIQFGSRINYTCNQGYRLIGSSSAVCVITDQSVDWDTEAPICEWIPCEIPPGIPNGDFFSSTREDFHYGMVVTYRCNTDARGKALFNLVGEPSLYCTSNDGEIGVWSGPPPQCIELNKCTPPPYVENAVMLSENRSLFSLRDIVEFRCHPGFIMKGASSVHCQSLNKWEPELPSCFKGVICRLPQEMSGFQKGLGMKKEYYYGENVTLECEDGYTLEGSSQSQCQSDGSWNPLLAKCVSRSIIEGRHHHHHH
notes: also called Psel.NB; Psel-NB
B1 was tested, and the “EC50 (read off the curve)” value (human P-selectin) was about 0.06 µg/mL, the Kd [1] was 630 nM and the koff [1] was 0.00179 s⁻¹. The kon [1] was 2840 M⁻¹ s⁻¹.
